The source of these data is patent US20210047398A1, “ASPROSIN, A FAST-INDUCED GLUCOGENIC PROTEIN HORMONE” (Baylor College of Medicine, priority 2016, published 2021).

Where two headings read alike, the source gives them in different places.

One data set has as its system liver. The experiment in a line: Liver cAMP level and PKA activity after subcutaneous injection. Conditions: single 30 μg dose, 20 minutes. The format is in vivo, mice. The text has this:
[…] Data are represented as the mean±SEM.
Cell Culture. […] Results were normalized to protein content.
On the technique in general: Cyclic AMP is a second messenger, typically raised through Gs and lowered through Gi signalling.

A short description of data set [1]: Plasma His-tag sandwich ELISA after subcutaneous injection. In kind it is in vivo, mice. Particulars: 30 μg subcutaneous injection. As for the experimental part:
FIGS. 22A-22E: Asprosin traffics to the liver in vivo and binds the hepatocyte surface with high affinity in a saturable and competitive manner. (FIG. 22A) SPECT scans were performed 15 minutes after intravenous injection with 150 μCi I125-asprosin, boiled I125-asprosin, or free I125 in live, anesthetized mice previously injected with bismuth as a hepatic contrast agent. 3 representative images are shown in axial and coronal planes. (FIG. 22B) Liver asprosin accumulation was measured as liver photon intensity from mice in (FIG. 22A). (FIG. 22C) Tissue radioactivity (normalized to tissue weight) was measured using a γ-counter after sacrificing mice from (FIG. 22A), 45 minutes following injection (n=4 mice). (FIG. 22D) Sandwich ELISA was used to measure plasma His tag (recombinant asprosin contains an N-terminal His tag) in WT mice before injection and 15, 30, 60 and 120 minutes after injection with 30 μg recombinant asprosin. The time taken for peak signal to fall to half-maximal level is indicated by the arrow. […] Specific binding (shown in red) was calculated as the difference between the two curves. Data are represented as the mean±SEM.
Sandwich ELISA and Western Blot. […] Increasing amounts of recombinant asprosin (which contains an N-terminal His tag) were used to generate a standard curve for both assays. EDTA-plasma was used for plasma sandwich ELISAs and serum-free DMEM concentrated using Vivaspin protein concentrator spin columns by GE Life Sciences Inc. was used for media sandwich ELISAs.
Background: In an ELISA, binding on a coated surface is turned into a signal by an enzyme label.

For data set [2], the system named is mouse primary hepatocytes. The experiment in a line: In vitro glucose production assay (media glucose accumulation). Conditions: 2 hours, 0-1100 nM recombinant asprosin. As to the method: (§1) Cell Culture. Primary mouse hepatocytes were isolated from 8- to 12-week-old WT mice using standard methodology. […] The cells were treated with 50 nM recombinant asprosin or GFP for 10 minutes for cAMP and PKA assays and for 2 hours for the in vitro glucose production assay. Cells were pretreated with various inhibitors for 1 hour prior to treatment with asprosin, GFP, Glucagon or Epinephrine. cAMP was measured from cell lysates using the cAMP direct immunoassay kit from Cell Biolabs. PKA activity was measured from cell lysates using the PKA kinase activity kit from Enzo Lifesciences, Inc. Media glucose content was measured using the Glucose Colorimetric Assay Kit from Biovision. Results were normalized to protein content.

Data set [3] deals with mouse primary hepatocytes. As to the method:
as §1

For data set [4] the following is noted: bacterially-generated version (Romere et al., 2016); cited from earlier work.
The subject of a further data set is hepatocyte surface. Put plainly: Asprosin-biotin conjugate binding to the hepatocyte surface. The arrangement: species or system mouse. Conditions: 100-fold excess. As for the experimental part:
Recombinant asprosin was conjugated with biotin using the Basic Biotinylation Sulfo-NHS Kit from Pierce. […] The cells were washed 3 times with PBS without lysis, followed by addition of streptavidin-HRP. The resulting absorbance was measured colorimetrically and the results were normalized to protein content.

B1: recombinant asprosin: 146 amino acid E. coli expressed fusion protein: 6 amino acid N-terminal His tag and 140 amino acid wild type asprosin (FBN1 2732-2871) (protein)
chain: HHHHHHSTNETDASNIEDQSETEANVSLASWDVEKTAIFAFNISHVSNKVRILELLPALTTLTNHNRYLIESGNEDGFFKINQKEGISYLHFTKKKPVAGTYSLQISSTPLYKKKELNQLEDKYDKDYLSGELGDNLKMKIQVLLH
Turning to B1, the “liver cAMP and protein kinase A activity” value in the data set on liver is “sufficient to increase liver cAMP and protein kinase A activity”. For the same molecule, the plasma half-life entry in data set [1] (His-tag ELISA) is recorded as “approximately 20 minutes”. Moreover, in data set [1] (mice), the “peak level in plasma” value is listed as 50 nM and the “time of peak level after injection” value amounted to 20 min. For the same molecule, in data set [2], the media glucose concentration result is recorded as “increase in glucose concentration in a dose-dependent manner”. Further, in data set [3], the “hepatocyte PKA activity, dose response” value is “increased in a dose responsive manner”. Further, the plasma half-life in data set [4] is around 20 min. In addition, in the data set with hepatocyte surface, the “competition of asprosin-biotin binding” value is “abolished the effect”.
